Measured values: US8703915B2, “Mutant proteins and methods for producing them” (Heptares Therapeutics Limited, priority 2009, dated 2014)

Columns and labels:
A2A receptor [1] = assay: cAMP functional assay (HTRF), NECA stimulation of CHO cells over-expressing A2A receptor; format: cell-based, human; conditions: intracellular cAMP, CHO cells
Procedure: (§1) In order to stabilise an agonist-bound conformation, a systematic Alanine-scan was performed in order to identify mutations that may stabilise the A2A receptor bound to its full agonist NECA. In this A2A agonist-bound study, L2.46 (L48A) is the most stabilising single mutant. When NECA is bound to the solubilised receptor, removing the L48 side chain (in A2A-L48A) dramatically increases the thermostability of the ligand-receptor complex resulting in an increase of 14° C. over the wild type receptor in the detergent DDM (FIG. 5a). […] We evaluated the signalling property of the A2A receptor by over-expressing the receptor in CHO cells. A2A agonist stimulation triggers the signal transduction through the Gs-trimeric complex and increases the intracellular cAMP level. The increase in intracellular cAMP can be detected by and quantified by using an anti-cAMP Mab antibody competition assay. […] However the signalling efficacy is reduced to 30% (FIG. 6).
This assay takes advantage of Homogeneous Time-Resolved Fluorescence (HTRF) using cAMP labeled with the dye d2 in presence of an anti-cAMP Mab labeled with Cryptate. The method is based on a competitive immunoassay between cAMP produced by cells and the cAMP labeled with the dye d2. CHO cells were grown using Glutamax Ham's F12, 10% FBS in 96-well plates, clear bottom and Black wall (Costar). Cells were seeded at a density of 12500 cells per well, grown overnight, washed with PBS and then transfected with 100 ng of pcDNA-3-A2A(2-316) pre-incubated with 0.3 μL of GeneJuice (Novagen) per well. After 48 hours of receptor expression, the medium was removed, the cells were washed in PBS then stimulated by using different NECA concentrations, in the presence of Rolipram (50 μM) and Adenosine deaminase in a total volume of 50 μL for 30 minutes. Dilution was realised in Hamf's F12/cAMP-d2 conjugate according to the manufacturer protocol, without serum. […] The plate was incubated at room temperature for 1 hour and then read using the Pherastar 96-well time-resolved fluorescence plate reader (Ex 340 nm; Em 665/620 nm).

A2A receptor [2] = target: T1, A2A receptor (Homo sapiens, UniProt P29274); assay: Thermostability of A2A receptor in ZM241385 antagonist-bound state, solubilised in DDM; format: physicochemical; conditions: ZM antagonist bound state (100 nM)
T1 construct: A2AR-(2-316) expression was carried out by using the pRG/III-hs-MBP E. coli expression vector; MBP (named only in the vector name); made in house; host or cells: E. coli DH5alpha
Procedure: as §1
A2AR-(2-316) expression was carried out by using the pRG/III-hs-MBP E. coli expression vector and DH5α cells. Cells were grown at 37° C. in 2 L flasks containing 500 mL of 2×TY medium supplemented with Ampicillin (100 μg/mL) and glucose (0.2% w/v). At OD600≈0.7, IPTG and theophylline were added at final concentrations respectively of 0.5 mM and 100 μM, and the temperature was reduced to 20° C. […]

adenosine A2A receptor = assay: Antagonist binding to adenosine A2A NPxxY motif alanine mutants (Table 1); set-up: species or system human
Procedure: An alanine scan was carried out in a similar fashion on an adenosine A2A receptor along with the 5HT2C receptor in the presence of the antagonist Mesulergine. Both alanine scans were carried out in order to further stabilize the antagonist conformation. […] The motif in Adenosine A2A is NPFIY (SEQ ID NO: 364) and for the 5HT2C is NPLVY (SEQ ID NO: 363). Therefore mutations in this region of the receptor contain stabilising mutations specific to the agonist conformation and detrimentally effect antagonist binding.
Adenosine A2A receptor was solubilised from transiently transfected mammalian cells about 36 hours post transfection, in 50 mM Tris pH7.4/400 mM NaCl/0.5% DDM and protease inhibitor. Cell lysates were left at 4° C. on a rotator and then cleared by centrifugation at 13,200 rpm for 20 minutes at 4° C. Solubilised receptors were then purified on Ni-NTA beads and eluted with 50 mM histidine. The eluted receptor was used in radioligand binding assay. The Tm was determined by incubating 108 μl of the eluate with Zm241385 radioligand at a final concentration of 100 nM for one hour at 4° C. The six ligand incubations are then incubated at six different temperatures from 20° C. to 50° C., for thirty minutes. Receptor bound and free radioligand were separated using G25 Sephadex spin columns.

A2A receptor [3] = assay: Thermostability of A2A receptor in NECA agonist-bound state, solubilised in DDM; format: physicochemical, human; conditions: NECA agonist-bound state (400 nM), solubilised in DDM
Procedure: as §1
A2AR-(2-316) expression was carried out by using the pRG/III-hs-MBP E. coli expression vector and DH5α cells. Cells were grown at 37° C. in 2 L flasks containing 500 mL of 2×TY medium supplemented with Ampicillin (100 μg/mL) and glucose (0.2% w/v). At OD600≈0.7, IPTG and theophylline were added at final concentrations respectively of 0.5 mM and 100 μM, and the temperature was reduced to 20° C. After 22 to 24 hours, cells were harvested in aliquots of 14 mL, centrifuged for 30 min and stored at −20° C. Both 5HT2C and M4 receptors were transiently expressed in HEK293T cells using GeneJuice transfection reagent used according to the manufacturers guidelines.
An aliquot of E. coli cells expressing wild type or mutant A2AR-(2-316) (14 mL) was thawed on ice and cells were resuspended in 500 μL of buffer A (50 mM Tris HCl mM/pH 7.4; 0.4 M NaCl, 250 μg/mL lysozyme (Sigma), 1 mg/mL DNAse I (Sigma), supplemented with complete EDTA-free Protease inhibitor cocktail (Roche)) and incubated 1 hour at 4° C. Samples were then sonicated 1 min at 4° C. using a cup-horn sonicator. […]

pEC50 (A2A receptor [1]): 7.27±0.19
% of Wildtype binding (adenosine A2A receptor; antagonist binding): 100%
DPM1 (adenosine A2A receptor; antagonist binding, replicate 1): 13513 DPM
DPM2 (adenosine A2A receptor; antagonist binding, replicate 2): 12949 DPM
Average - BG (adenosine A2A receptor; average minus background): 12731
Average (adenosine A2A receptor; average of DPM1 and DPM2): 13231
B1: A2A-WT: wild type human adenosine A2A receptor, A2AR-(2-316) (protein, UniProt P29274 2-316, looked up, fragment)
chain: PIMGSSVYITVELAIAVLAILGNVLVCWAVWLNSNLQNVTNYFVVSLAAADIAVGVLAIPFAITISTGFCAACHGCLFIACFVLVLTQSSIFSLLAIAIDRYIAIRIPLRYNGLVTGTRAKGIIAICWVLSFAIGLTPMLGWNNCGQPKEGKNHSQGCGEGQVACLFEDVVPMNYMVYFNFFACVLVPLLLMLGVYLRIFLAARRQLKQMESQPLPGERARSTLQKEVHAAKSLAIIVGLFALCWLPLHIINCFTFFCPDCSHAPLWLMYLAIVLSHTNSVVNPFIYAYRIREFRQTFRKIIRSHVLRQQEPFKA
Tm (A2A receptor [2]): 33.0±0.7 °C
Tm (A2A receptor [3]): 28.7±0.5 °C
